From patent publication US20180057590A1 (VAL CHUM LIMITED PARTNERSHIP, published 2018) come the findings set out here.

The test has as its target T1, human Dual Ig domain containing cell adhesion molecule (DICAM) (human, UniProt Q9BRK3 20-442).
T1 construct: Assayed as endogenous DICAM of THP-1 cells and TH17 lymphocytes, and as human DICAM from vector pCMV6-neo-DICAM in NIH3T3 and NS0 cells; It stood on the cell surface in flow cytometry and in cell lysate in Western blot; also called limitrin; Matrix-remodeling-associated protein 8
T1 sequence: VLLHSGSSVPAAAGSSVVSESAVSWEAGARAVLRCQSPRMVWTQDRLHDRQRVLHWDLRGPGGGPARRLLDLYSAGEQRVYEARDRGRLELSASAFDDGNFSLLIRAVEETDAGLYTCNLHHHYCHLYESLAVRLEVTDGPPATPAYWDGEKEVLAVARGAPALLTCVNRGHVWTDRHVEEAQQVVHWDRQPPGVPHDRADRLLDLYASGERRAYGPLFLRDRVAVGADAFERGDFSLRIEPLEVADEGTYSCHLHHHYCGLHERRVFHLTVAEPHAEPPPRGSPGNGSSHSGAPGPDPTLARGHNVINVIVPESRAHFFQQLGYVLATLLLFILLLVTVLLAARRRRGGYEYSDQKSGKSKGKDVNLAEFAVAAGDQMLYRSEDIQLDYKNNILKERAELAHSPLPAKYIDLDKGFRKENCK
In words: Western blot (Table III). The procedure:
THP-1 cells express DICAM as determined by qPCR and confirmed by WB (see Jung et al., Journal of Bone and Mineral Research, Vol. 27, No. 9, pp 2024-2034, 2012). THP-1 cell lysate (30 μg) were loaded on 12% SDS-PAGE gel and electrophoresed for 90 min at 100V and transferred to PVDF membranes. Hybridoma from clone 3C2, 2C11, 2H12, 9E9 and 1B2 (N-terminal DICAM epitope 57-71) or from clone 7F8, 1D9, 4B8 and 1D4 (C-terminal DICAM epitope 372-385) were incubated at 4° C. (50 μg/ml) for 12 h. Secondary antibody is goat anti-mouse pan-IgG coupled to HRP (1/2000 dilution). Actin is shown as a loading control. N=4
Characterization of anti-DICAM antibodies by Western blot THP-1 and NIH3T3 cells transfected with human DICAM-encoding vector (pCMV6-neo) or with empty vector (pCMV6-neo) cell lysate ([…]) were loaded on 12% SDS-PAGE gel and electrophoresed for 90 min at 100V and transferred to PVDF membranes. […] N=4 by standard SDS-PAGE and immunoblots were analyzed with anti-DICAM (Goat; 1:100 dilution; sc-163102; Santa Cruz Biotechnology®); horseradish peroxidase-conjugated anti-goat (1:1,000 dilution; P00448; DakoCytomation®) and the ECL system (Amersham Biosciences®) were used to detect specific binding, and anti-actin (1:5,000 dilution; AC-15; MP Biomedicals®) served as a loading control. […]
Background: A western blot detects proteins with antibodies after separation by electrophoresis.

B1: anti-DICAM monoclonal antibody clone 9E9 (antibody, mouse IgG1, V domains shown)
VH: EVQLVESGGGLVKPGGSLKLSCAASGFTFISYAMSWVRQTPEKRLEWVATISSGGSYTYYPHSVKGRFTISRDNARNTLYLQMSSLRSEDTAMYYCARLDGPSYAMDYWGQGTSVTVS
VL: QIVLTQSPAIMSAFLGEEITLTCSASSSVSYMHWYQQKSGTSPKLLIYSTSNLASGVPSRFSGSGSGTFYSLTISSVEAEDAADYYCHQWSSYRTFGGGTKLEIKR
notes: Mouse hybridoma antibody, murine IgG1 heavy chain and kappa light chain; also called mAb clone 9E9; hybridoma clone 9E9
As for B1, the binding result is given as “binds”.
